This note sets out measurements from PMC9210341 (2022).

“And” between values parts separate entries of the source, which are not always exact repeats. Equal entries are not always repeated.

The target in the assay is SARS-CoV-2 prototype receptor binding domain (residues 319-541) (SARS-CoV-2, UniProt P0DTC2 319-541). The assay is described as follows: SPR.

B1: equine angiotensin converting enzyme 2 (residues 19-615) (receptor)
chain: STTEDLAKTFLEKFNSEAEELSHQSSLASWSYNTNITDENVQKMNEAGARWSAFYEEQCKLAKTYPLEEIQNLTVKRQLQALQQSGSSVLSADKSKRLNEILNTMSTIYSTGKVCNPSNPQECLLLEPGLDAIMENSKDYNQRLWAWEGWRSEVGKQLRPLYEEYVVLKNEMARANNYEDYGDYWRGDYEAEGPSGYDYSRDQLIEDVERTFAEIKPLYEHLHAYVRAKLMDTYPSHINPTGCLPAHLLGDMWGRFWTNLYSLTVPFGQKPNIDVTDAMVDQSWDAKRIFEEAEKFFVSVGLPNMTQGFWENSMLTEPGDGRKVVCHPTAWDLGKGDFRIKMCTKVTMDDFLTAHHEMGHIQYDMAYAVQPYLLRNGANEGFHEAVGEIMSLSAATPNHLKAIGLLPPDFYEDSETEINFLLKQALTIVGTLPFTYMLEKWRWMVFKGEIPKEEWMKKWWEMKREIVGVVEPVPHDETYCDPAALFHVANDYSFIRYYTRTIYQFQFQEALCQTAKHEGPLHKCDISNSTEAGQKLLQMLSLGKSEPWTLALERIVGVKNMDVRPLLNYFEPLFTWLKDQNKNSFVGWSTNWSPYAD
On to B1, for which the Kd was 87.7 nM and 200 nM.
